{"source": "patent US10117916B2", "about": "“Peptides and combination of peptides for use in immunotherapy against CLL and other cancers” (immatics biotechnologies GmbH, priority 2015, dated 2018)"}
{"target": "HLA-A*02:01 (Homo sapiens, UniProt P04439, D140Y/D185E/D98H/E176V/E277Q/G131W/G231S/I119V/I121R/I166T/I218V/L300P/L318F/N151K/N90K/P208A/P217A/Q86G/Q94H/R138H/R169H/T345S)", "assay": "MHC binding assay: UV-ligand exchange with β2m ELISA (peptide exchange yield)", "settings": "MHC class I binding score; binding to HLA-A*02:01 ranged by peptide exchange yield (UV-ligand exchange, β2m ELISA)", "excerpt": "Candidate peptides for T cell based therapies according to the present invention were further tested for their MHC binding capacity (affinity). The individual peptide-MHC complexes were produced by UV-ligand exchange, where a UV-sensitive peptide is cleaved upon UV-irradiation, and exchanged with the peptide of interest as analyzed. Only peptide candidates that can effectively bind and stabilize the peptide-receptive MHC molecules prevent dissociation of the MHC complexes. To determine the yield of the exchange reaction, an ELISA was performed based on the detection of the light chain (β2m) of stabilized MHC complexes. The assay was performed as generally described in Rodenko et al. (Rodenko et al., 2006).\n96 well MAXISorp plates (NUNC) were coated over night with 2 ug/ml streptavidin in PBS at room temperature, washed 4× and blocked for 1 h at 37° C. in 2% BSA containing blocking buffer. Refolded HLA-A*02:01/MLA-001 monomers served as standards, covering the range of 15-500 ng/ml. Peptide-MHC monomers of the UV-exchange reaction were diluted 100 fold in blocking buffer. Samples were incubated for 1 h at 37° C., washed four times, incubated with 2 ug/ml HRP conjugated anti-β2m for 1 h at 37° C., washed again and detected with TMB solution that is stopped with […]. Absorption was measured at 450 nm. Candidate peptides that show a high exchange yield (preferably higher than 50%, most preferred higher than 75%) are generally preferred for a generation and production of antibodies or fragments thereof, and/or T cell receptors or fragments thereof, as they show sufficient avidity to the MHC molecules and prevent dissociation of the MHC complexes."}
{"substance": "300 (ILLNPAYDVYL; listed as Homo sapiens) [compound 300]", "Peptide Exchange": "″+++″ (≥50 = +++)"}
{"substance": "373 (TLLADQGEIRV; listed as Homo sapiens) [compound 373]", "Peptide Exchange": "″++″ (≥20% = ++)"}
{"substance": "59 (FVFGDENGTVSL; listed as Homo sapiens) [compound 59]", "Peptide Exchange": "″+++″ (≥50 = +++)"}
{"substance": "198 (YLTFLPAEV; listed as Homo sapiens) [compound 198]", "Peptide Exchange": "″+++″ (≥50 = +++)"}
{"substance": "143 (QLLDTYFTL; listed as Homo sapiens) [compound 143]", "Peptide Exchange": "″+++″ (≥50 = +++)"}
{"substance": "268 (TLLQVFHLL; listed as Homo sapiens) [compound 268]", "Peptide Exchange": "″+++″ (≥50 = +++)"}
{"substance": "278 (YLDDLLPKL; listed as Homo sapiens) [compound 278]", "Peptide Exchange": "″+++″ (≥50 = +++)"}
{"substance": "111 (KLWNVAAPLYL; listed as Homo sapiens) [compound 111]", "Peptide Exchange": "″+++″ (≥50 = +++)"}
{"substance": "124 (LLLEETEKQAV; listed as Homo sapiens) [compound 124]", "Peptide Exchange": "″+++″ (≥50 = +++)"}
{"substance": "27 (AVLGLVWLL; listed as Homo sapiens) [compound 27]", "Peptide Exchange": "″+++″ (≥50 = +++)"}
{"substance": "253 (NLWSVDGEVTV; listed as Homo sapiens) [compound 253]", "Peptide Exchange": "″+++″ (≥50 = +++)"}
{"substance": "89 (ILDFGTFQL; listed as Homo sapiens) [compound 89]", "Peptide Exchange": "″+++″ (≥50 = +++)"}
{"substance": "234 (GLDDAEYAL; listed as Homo sapiens) [compound 234]", "Peptide Exchange": "″++″ (≥20% = ++)"}
{"substance": "341 (LLAELPASVHA; listed as Homo sapiens) [compound 341]", "Peptide Exchange": "″+++″ (≥50 = +++)"}
{"substance": "214 (RLQELTEKL; listed as Homo sapiens) [compound 214]", "Peptide Exchange": "″+++″ (≥50 = +++)"}
{"substance": "227 (FLAEASVMTQL; listed as Homo sapiens) [compound 227]", "Peptide Exchange": "″+++″ (≥50 = +++)"}
{"substance": "316 (MLLEHGITL; listed as Homo sapiens) [compound 316]", "Peptide Exchange": "″+++″ (≥50 = +++)"}
{"substance": "211 (LIDVKPLGV; listed as Homo sapiens) [compound 211]", "Peptide Exchange": "″+++″ (≥50 = +++)"}
{"substance": "125 (LLLEIGEVGKLFV; listed as Homo sapiens) [compound 125]", "Peptide Exchange": "″+++″ (≥50 = +++)"}
{"substance": "175 (FTVPRVVAV; listed as Homo sapiens) [compound 175]", "Peptide Exchange": "″+++″ (≥50 = +++)"}
{"substance": "145 (SALDTITTV; listed as Homo sapiens) [compound 145]", "Peptide Exchange": "″+++″ (≥50 = +++)"}
{"substance": "298 (IILPVEVEV; listed as Homo sapiens) [compound 298]", "Peptide Exchange": "″+++″ (≥50 = +++)"}
{"substance": "117 (LLILENILL; listed as Homo sapiens) [compound 117]", "Peptide Exchange": "″+++″ (≥50 = +++)"}
{"substance": "25 (ATYSGLESQSV; listed as Homo sapiens) [compound 25]", "Peptide Exchange": "″++″ (≥20% = ++)"}
{"substance": "349 (ALATHILSL; listed as Homo sapiens) [compound 349]", "Peptide Exchange": "″+++″ (≥50 = +++)"}
{"substance": "8 (ALAASALPALV; listed as Homo sapiens) [compound 8]", "Peptide Exchange": "″+++″ (≥50 = +++)"}
{"substance": "265 (TLLADDLEIKL; listed as Homo sapiens) [compound 265]", "Peptide Exchange": "″+++″ (≥50 = +++)"}
{"substance": "34 (YLPYIFPNI; listed as Homo sapiens) [compound 34]", "Peptide Exchange": "″+++″ (≥50 = +++)"}
{"substance": "85 (HLMLHTAAL; listed as Homo sapiens) [compound 85]", "Peptide Exchange": "″++++″ (≥75% = ++++)"}
{"substance": "187 (VMDTHLVNI; listed as Homo sapiens) [compound 187]", "Peptide Exchange": "″++++″ (≥75% = ++++)"}
{"substance": "258 (RLDYITAEI; listed as Homo sapiens) [compound 258]", "Peptide Exchange": "″+++″ (≥50 = +++)"}
{"substance": "149 (SLDNGGYYI; listed as Homo sapiens) [compound 149]", "Peptide Exchange": "″+++″ (≥50 = +++)"}
{"substance": "172 (TLYDMLASI; listed as Homo sapiens) [compound 172]", "Peptide Exchange": "″+++″ (≥50 = +++)"}
{"substance": "269 (TLTDEQFLV; listed as Homo sapiens) [compound 269]", "Peptide Exchange": "″++″ (≥20% = ++)"}
{"substance": "7 (ALLERTGYTL; listed as Homo sapiens) [compound 7]", "Peptide Exchange": "″+++″ (≥50 = +++)"}
{"substance": "121 (RLYEITIEV; listed as Homo sapiens) [compound 121]", "Peptide Exchange": "″++++″ (≥75% = ++++)"}
{"substance": "310 (LLSTLHLLV; listed as Homo sapiens) [compound 310]", "Peptide Exchange": "″+++″ (≥50 = +++)"}
{"substance": "119 (VLPAEFFEV; listed as Homo sapiens) [compound 119]", "Peptide Exchange": "″+++″ (≥50 = +++)"}
{"substance": "346 (VLVQVSPSL; listed as Homo sapiens) [compound 346]", "Peptide Exchange": "″+++″ (≥50 = +++)"}
{"substance": "208 (ILLKTEGINL; listed as Homo sapiens) [compound 208]", "Peptide Exchange": "″+++″ (≥50 = +++)"}
{"substance": "335 (YLYQEQYFI; listed as Homo sapiens) [compound 335]", "Peptide Exchange": "″+++″ (≥50 = +++)"}
{"substance": "46 (YIIDSAQAV; listed as Homo sapiens) [compound 46]", "Peptide Exchange": "″+++″ (≥50 = +++)"}
{"substance": "266 (TLLDQLDTQL; listed as Homo sapiens) [compound 266]", "Peptide Exchange": "″++″ (≥20% = ++)"}
{"substance": "146 (SIIEGPIIKL; listed as Homo sapiens) [compound 146]", "Peptide Exchange": "″+++″ (≥50 = +++)"}
{"substance": "123 (LLLAEAELLTL; listed as Homo sapiens) [compound 123]", "Peptide Exchange": "″++″ (≥20% = ++)"}
{"substance": "231 (FLYIRQLAI; listed as Homo sapiens) [compound 231]", "Peptide Exchange": "″+++″ (≥50 = +++)"}
{"substance": "104 (KLILLDTPLFL; listed as Homo sapiens) [compound 104]", "Peptide Exchange": "″+++″ (≥50 = +++)"}
{"substance": "136 (NLDKLWTLV; listed as Homo sapiens) [compound 136]", "Peptide Exchange": "″++″ (≥20% = ++)"}
{"substance": "39 (FLDALLTDV; listed as Homo sapiens) [compound 39]", "Peptide Exchange": "″+++″ (≥50 = +++)"}
{"substance": "235 (GLDDLLLFL; listed as Homo sapiens) [compound 235]", "Peptide Exchange": "″+++″ (≥50 = +++)"}
{"substance": "318 (NLQVTQPTV; listed as Homo sapiens) [compound 318]", "Peptide Exchange": "″+++″ (≥50 = +++)"}
{"substance": "193 (YLDLSNNRL; listed as Homo sapiens) [compound 193]", "Peptide Exchange": "″+++″ (≥50 = +++)"}
{"substance": "360 (HLIDTNKIQL; listed as Homo sapiens) [compound 360]", "Peptide Exchange": "″+++″ (≥50 = +++)"}
{"substance": "109 (KLWEGLTELV; listed as Homo sapiens) [compound 109]", "Peptide Exchange": "″+++″ (≥50 = +++)"}
{"substance": "237 (GLQENLDVVV; listed as Homo sapiens) [compound 237]", "Peptide Exchange": "″++++″ (≥75% = ++++)"}
{"substance": "71 (GLKHDIARV; listed as Homo sapiens) [compound 71]", "Peptide Exchange": "″+++″ (≥50 = +++)"}
{"substance": "168 (YLLDQSFVM; listed as Homo sapiens) [compound 168]", "Peptide Exchange": "″++++″ (≥75% = ++++)"}
{"substance": "379 (YLAELVTPIL; listed as Homo sapiens) [compound 379]", "Peptide Exchange": "″+++″ (≥50 = +++)"}
{"substance": "166 (TLDPNQVSL; listed as Homo sapiens) [compound 166]", "Peptide Exchange": "″++″ (≥20% = ++)"}
